From IntAct's records for PubMed 30559186

Target: bi1_human TMBIM6 (UniProt P55061)
Sequence (P55061 whole entry): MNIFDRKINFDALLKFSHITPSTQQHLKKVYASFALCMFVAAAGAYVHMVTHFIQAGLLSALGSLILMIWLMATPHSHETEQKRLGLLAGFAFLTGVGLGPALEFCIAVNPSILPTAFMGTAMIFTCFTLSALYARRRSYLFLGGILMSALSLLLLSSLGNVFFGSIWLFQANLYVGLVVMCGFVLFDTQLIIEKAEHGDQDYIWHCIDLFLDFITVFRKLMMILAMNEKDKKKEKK

Row | Substance | effect of a mutation on the interaction
1 | Presenilin-1 (Homo sapiens) (from UniProt P49768) P284S | with no effect
2 | Presenilin-1 (Homo sapiens) (from UniProt P49768) M233L | with no effect
3 | Presenilin-1 (Homo sapiens) (from UniProt P49768) I143V | with no effect
4 | Presenilin-1 (Homo sapiens) (from UniProt P49768) V272A | with no effect
5 | Presenilin-1 (Homo sapiens) (from UniProt P49768) S169P | with no effect
6 | Presenilin-1 (Homo sapiens) (from UniProt P49768) I439V | with no effect
7 | Presenilin-1 (Homo sapiens) (from UniProt P49768) L381V | with no effect
